The text below walks through data of publication PMC2637981, “High-Level Production, Solubilization and Purification of Synthetic Human GPCR Chemokine Receptors CCR5, CCR3, CXCR4 and CX3CR1” (PLoS ONE, 2009).

The data set concerns the molecule itself. The data set is described as follows: SEC; Ni2+ column eluate concentrated and run on Superdex 200 10/300 GL in Buffer C (1x PBS, 0.02% FC14); fractions tested by SDS-PAGE and Western blot; monomer, dimer and higher oligomer resolved. Background: SEC sorts molecules by how far they enter the pores of the column.

B1: Trx-hCX3CR1 (human chemokine receptor CX3CR1 with N-terminal HP-thioredoxin, expressed from pBAD-hCX3CR1) (receptor, UniProt P49238 1-355, looked up)
chain: MDQFPESVTENFEYDDLAEACYIGDIVVFGTVFLSIFYSVIFAIGLVGNLLVVFALTNSKKPKSVTDIYLLNLALSDLLFVATLPFWTHYLINEKGLHNAMCKFTTAFFFIGFFGSIFFITVISIDRYLAIVLAANSMNNRTVQHGVTISLGVWAAAILVAAPQFMFTKQKENECLGDYPEVLQEIWPVLRNVETNFLGFLLPLLIMSYCYFRIIQTLFSCKNHKKAKAIKLILLVVIVFFLFWTPYNVMIFLETLKLYDFFPSCDMRKDLRLALSVTETVAFSHCCLNPLIYAFAGEKFRRYLYHLYGKCLAVLCGRSVHVDFSSSESQRSRHGSVLSSNFTYHTSDGDALLLL
notes: synthetic full-length gene of 1,065 bp; not shown: HP-thioredoxin (E. coli thioredoxin with E32H and Q64H), N-terminal, kept; His6, C-terminal, kept
On to B1, for which the binding result was “binds”.

B2: Trx-hCCR3 (human chemokine receptor CCR3 with N-terminal HP-thioredoxin, expressed from pBAD-hCCR3) (receptor, UniProt P51677 1-355, looked up)
chain: MTTSLDTVETFGTTSYYDDVGLLCEKADTRALMAQFVPPLYSLVFTVGLLGNVVVVMILIKYRRLRIMTNIYLLNLAISDLLFLVTLPFWIHYVRGHNWVFGHGMCKLLSGFYHTGLYSEIFFIILLTIDRYLAIVHAVFALRARTVTFGVITSIVTWGLAVLAALPEFIFYETEELFEETLCSALYPEDTVYSWRHFHTLRMTIFCLVLPLLVMAICYTGIIKTLLRCPSKKKYKAIRLIFVIMAVFFIFWTPYNVAILLSSYQSILFGNDCERSKHLDLVMLVTEVIAYSHCCMNPVIYAFVGERFRKYLRHFFHRHLLMHLGRYIPFLPSEKLERTSSVSPSTAEPELSIVF
notes: as for B1
For B2, the binding result is “binds”.
